Laboratory results as given in patent publication CN114656564A (ANHUI ANKE BIOLOGICAL ENG GROUP CO LTD, dated 2022).

T1: rhOX40-Avi-His-bio (human, UniProt P43489 29-214, biotin covalently attached to the Avi tag by BirA)
T1 construct: range 29-214; Biotinylated form of rhOX40-Avi-His, captured on SA chip in SPR; also called 生物素标记的抗原; not shown: Avi tag (biotinylated); His tag
T1 sequence (looked up): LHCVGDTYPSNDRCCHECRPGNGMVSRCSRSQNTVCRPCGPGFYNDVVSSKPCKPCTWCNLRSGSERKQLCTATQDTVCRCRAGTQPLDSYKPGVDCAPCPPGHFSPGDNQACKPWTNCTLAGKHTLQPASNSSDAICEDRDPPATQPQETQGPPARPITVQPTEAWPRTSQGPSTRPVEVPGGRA

T2: rhOX40-Avi-His (human, UniProt P43489 29-214)
T2 construct: range 29-214; Recombinant protein made from plasmid pCD-OX40-Avi-His; also called OX40抗原; 抗原蛋白OX40; not shown: Avi tag; His tag
T2 sequence (looked up): T1 sequence (looked up)

T3: human OX40 expressed on Jurkat cells (Jurkat-OX40-NFκB-Luc) (human, UniProt P43489 29-277)
T3 construct: whole, on cells; also called Jurkat-OX40-NFκB-21C6; 表达OX40抗原的Jurkat细胞系
T3 sequence (looked up): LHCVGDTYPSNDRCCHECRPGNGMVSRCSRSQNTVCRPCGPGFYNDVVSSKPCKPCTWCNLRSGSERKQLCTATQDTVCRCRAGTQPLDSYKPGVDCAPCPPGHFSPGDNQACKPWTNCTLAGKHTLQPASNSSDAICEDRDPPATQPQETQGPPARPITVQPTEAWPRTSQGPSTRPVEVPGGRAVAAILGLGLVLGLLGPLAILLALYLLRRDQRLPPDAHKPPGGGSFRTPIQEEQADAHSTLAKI

B1: D7-Fc (Fc fusion)
chain: DVQLVESGGGLVQPGGSLRLSCAASGFTASIYGMRWFRQAPGKGRELVAGIVDAGSATYYADSVKGRFTISRDNAKNTVYLQMNSLRAEDTAVYYCARGNHEGEVGLDYWGQGTQVTVSA
notes: not shown: IgG1 Fc region, from human
B2: D2-Fc (Fc fusion)
chain: DVQLVESGGGLVQPGGSLRLSCAASGLTSSLYIWGWFRQAPGKGREWVSTIWDADVTDYADSVKGRFTISRDNAKNTVYLQMNSLRAEDTAVYYCARRDFDSLADGLDYWGQGTQVTVSA
notes: as for B1
B3: D1-Fc (Fc fusion)
chain: DVQLVESGGGLVQPGGSLRLSCAASGRTASGYTIGWFRQAPGKGRELVSAINRAGSATHYADSVKGRFTISRDNAKNTVYLQMNSLRAEDTAVYYCARSGRWGRYWLAYWGQGTQVTVSA
notes: as for B1
B4: A1-Fc (Fc fusion)
chain: DVQLVESGGGLVQPGGSLRLSCAASGFSYNRTDIRWFRQAPGKGRELVAGIANWGGTTYYADSVKGRFTISRDNAKNTVYLQMNSLRAEDTAVYYCARRRYECVDWIVDPWWDYWGQGTQVTVSA
notes: as for B1
B5: C7-Fc (Fc fusion)
chain: DVQLVESGGGLVQPGGSLRLSCAASGSIPSDTAMYWFRQAPGKGREWVSVIWGSGVTYYADSVKGRFTISRDNAKNTVYLQMNSLRAEDTAVYYCARTGLGRAYWGQGTQVTVSA
notes: as for B1
B6: D12-Fc (Fc fusion)
chain: DVQLVESGGGLVQPGGSLRLSCAASGRQFGSYAMSWFRQAPGKGREWVSTIDSAGGSTNYADSVKGRFTISRDNAKNTVYLQMNSLRAEDTAVYYCARLIDWYCIDYFDYWGQGTQVTVSA
notes: as for B1

Each binder was assayed against T1, rhOX40-Avi-His-bio (assay: SPR (T200), biotinylated rhOX40-Avi-His-bio captured on SA chip, D7-Fc as analyte).

Kd	Binder
~16.8 nM	B1

What follows are binders tested against T2, rhOX40-Avi-His (assay: ELISA on coated rhOX40-Avi-His).

binding result	Binder
binds	B2
binds	B3
binds	B4
binds	B5
binds	B6

These binders were tested against T3, human OX40 expressed on Jurkat cells … (assay: flow cytometry on Jurkat cells expressing OX40, anti-human Fc-FITC).

binding result	Binder
binds	B2
binds	B3
binds	B4
